The results in this text go back to CN110404066A (QILU PHARMACEUTICAL CO LTD, dated 2019).

The term Kd denotes the concentration at which binding is half-saturated. Low values mean tighter binding, high ones weaker binding.

Test [1] addresses T1, PD-1抗原 (UniProt Q15116 25-167, limits assumed). Briefly: SPR (Biacore T200), antibody captured by anti-human Fc on CM5, PD-1 antigen as analyte, mean of two repeats. Background: Surface plasmon resonance follows binding to a sensor surface in real time, without labels.
In test [2] the target is T1, PD-1抗原. The test can be described thus: SPR (Biacore T200), antibody captured by anti-human Fc on CM5, PD-1 antigen as analyte, 1:1 model, first repeat.
Test [3] has as its target T1, PD-1抗原. Briefly: SPR (Biacore T200), antibody captured by anti-human Fc on CM5, PD-1 antigen as analyte, 1:1 model, second repeat.

T1 sequence (Q15116 25-167 limits assumed): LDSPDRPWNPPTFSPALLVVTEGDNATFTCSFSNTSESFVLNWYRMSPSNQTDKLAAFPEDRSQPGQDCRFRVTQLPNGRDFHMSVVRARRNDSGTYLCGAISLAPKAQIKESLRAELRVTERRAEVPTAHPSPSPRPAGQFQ

B1: 抗人PD-1的单克隆抗体ZMR01 (antibody, V domains shown)
VH: QVQLVQSGAEVKKPGASVKVSCKASGYTFTNYWIHWVRQAPGQGLEWMGEIDPYDSYTNYNQKFKGRVTMTVDKSTSTVYMELSSLRSEDTAVYYCARPGFTYGGMDFWGQGTLVTVSS
VL: DIQMTQSPSSLSASVGDRVTITCKSSQSLFNSGNQKNYLAWYQQKPGKVPKLLIYGASTRDSGVPYRFSGSGSGTDFTLTISSLQPEDVATYYCQNDHYYPYTFGGGTKVEIK
With B1, the Kd is 1.87 nM with PD-1抗原 [1], 1.91 nM with PD-1抗原 [2] and 1.82 nM in the test with PD-1抗原 [3].
